How the values were obtained:
[1] = system: TOV-21G ovarian cancer xenografts; experiment: TOV-21G ovarian cancer xenograft growth in nude mice; format: in vivo, mouse
Method: 5×10^6 TOV-21G ovarian cancer cells were implanted subcutaneously into individual female athymic nu/nu mice (Harlan). Treatment was initiated at day 12 after tumor implantation, when the average tumor volume reached approximately 150 mm^3. The mice received PBS, sActRIIB (30 mg/kg, SC, 1×/week) or activin-A antibody (30 mg/kg, SC, 2×/week). In a separate chemotherapy combination experiment, the mice were treated with PBS, sActRIIB (10 mg/kg, SC, 1×/week), 5-FU (50 mg/kg, IP, 3 cycles, 4 daily injections per cycle) or sActRIIB and 5-FU combination at the same doses above.
For all xenograft experiments, the tumor sizes were measured longitudinally by using an electronic caliper Immediately prior to the 1st dose, the tumor-bearing mice were randomized to ensure even distribution in tumor sizes across different groups. Tumor volumes (mm^3) were calculated as tumor length (mm)×tumor width (mm)×tumor height (mm) Tumor weights were determined by necropsy.
In another experiment, athymic nude mice received TOV-21G xenografts in the abdominal flank. After 14 days, subcutaneous hu-sActRIIB-Fc was administered weekly alone or in combination with 5-FU.

[2] = system: VEGF; experiment: VEGF release into culture medium (ELISA); format: cell-based, human; conditions: TOV21G, MRC-5, CCD-Lu and TPH-1 cells treated with activin-A, without or with sActRIIB; FIG. 17A
Method: (§1) The serum VEGF levels in inh-KO mice were measured by using immunoassay kit (R&D Systems), and the levels of human VEGF and Ang-1 in cell line culture medium were quantified using ELISA kits purchased from Invitrogen (VEGF) and R&D Systems (Ang-1), by following the manufacturers' recommended protocols.

[3] = system: Ang-1; experiment: Ang-1 release into culture medium (ELISA); format: cell-based, human; conditions: MRC-5 and CCD-Lu cells treated with activin-A, without or with sActRIIB; FIG. 17B
Method: as §1

[4] = system: VEGF transcripts; experiment: VEGF mRNA in cell cultures (real-time RT-PCR); format: cell-based, human, bovine; conditions: TOV-21G, BAEC, MRC-5, CCD-Lu, U937 cultures treated with recombinant activin-A, without or with sActRIIB; FIG. 16A
[5] = system: Ang-1 mRNA; experiment: Ang-1 mRNA in cell cultures (real-time RT-PCR); format: cell-based, human, bovine; conditions: BAEC, MRC-5 and CCD-Lu cultures treated with recombinant activin-A, without or with sActRIIB; FIG. 16B
[6] = system: activin-A (βA) mRNA; experiment: Endogenous activin-A (βA) mRNA in cell cultures (real-time RT-PCR); format: cell-based, human, bovine; conditions: TOV21G, BAEC, MRC-5, CCD-Lu, U937 and THP-1 cultures treated with recombinant activin-A, without or with sActRIIB; FIG. 18

Molecule: O=c1[nH]cc(F)c(=O)[nH]1 [5-FU, 5-Fluorouracil, reference compound]
- tumor growth reduction ([1]; 52 days after tumor cell injection, versus vehicle-treated tumor-bearing group, p<0.0001, weekly SC hu-sActRIIB-Fc from day 14, alone or with 5-FU): 47%
- rate of tumor growth of TOV-21G xenografts ([1]; chemotherapy combination experiment, sActRIIB 10 mg/kg SC 1x/week, 5-FU 50 mg/kg IP 3 cycles, alone or together, FIG. 13): decreased the rate of tumor growth significantly

B1: recombinant activin-A: Recombinant activin-A produced using mammalian expression system (Amgen Inc); stimulus in cell cultures (protein)
chain: GLECDGKVNICCKKQFFVSFKDIGWNDWIIAPSGYHANYCEGECPSHIAGTSGSSLSFHSTVINHYRMRGHSPFANLKSCCVPTKLRPMSMLYYDDGQNIIKKDIQNMIVEECGCS
- release of VEGF into the culture medium [2]: increased the release
- release of Ang-1 into the culture medium [3]: increased the release
- levels of VEGF transcripts [4]: marked increases
- levels of Ang-1 mRNA [5]: marked increases
- endogenous βA mRNA expression [6]: markedly upregulated

Source: US20140220033A1, “Administration of an Anti-Activin-A Compound to a Subject” (Santa Maria Biotherapeutics, Inc., priority 2013, published 2014)
